Reference: article PMC5116745, “Importance of the C-terminal histidine residues of Helicobacter pylori GroES for Toll-like receptor 4 binding and interleukin-8 cytokine production” (Scientific Reports, 2016)

B1: Helicobacter pylori GroES (HpGroES), wild type (natural protein)
chain: MKFQPLGERVLVERLEEENKTSSGIIIPDNAKEKPLMGVVKAVSHKISEGCKCVKEGDVIAFGKYKGAEIVLDGTEYMVLELEDILGIVGSGSCCHTGNHDHKHAKEHEACCHDHKKH
notes: GroES (HspA) of Helicobacter pylori; domain A plus C-terminal domain B (residues 91-118); Protein was dialysed with 4 molar equivalents of NiSO4 before size exclusion (nickel-loaded); also called WT; heat shock protein (HSP) A; source: E. coli M15 (pQE30), purified (Ni2+-chelating Sepharose, Superdex 200 size exclusion)
B2: HpGroES H113A mutant (natural protein, Helicobacter pylori, UniProt P0A0R3 1-118, looked up)
chain: MKFQPLGERVLVERLEEENKTSSGIIIPDNAKEKPLMGVVKAVSHKISEGCKCVKEGDVIAFGKYKGAEIVLDGTEYMVLELEDILGIVGSGSCCHTGNHDHKHAKEHEACCADHKKH
notes: GroES (HspA) of Helicobacter pylori with a point mutation in domain B; Same construct as m1 with the mutation; nickel-loaded during purification; source: E. coli M15 (pQE30), purified (Ni2+-chelating Sepharose, Superdex 200 size exclusion)
B3: HpGroES H115A mutant (natural protein, Helicobacter pylori, UniProt P0A0R3 1-118, looked up)
chain: MKFQPLGERVLVERLEEENKTSSGIIIPDNAKEKPLMGVVKAVSHKISEGCKCVKEGDVIAFGKYKGAEIVLDGTEYMVLELEDILGIVGSGSCCHTGNHDHKHAKEHEACCHDAKKH
notes: as for B2
B4: HpGroES H100A mutant (natural protein, Helicobacter pylori, UniProt P0A0R3 1-118, looked up)
chain: MKFQPLGERVLVERLEEENKTSSGIIIPDNAKEKPLMGVVKAVSHKISEGCKCVKEGDVIAFGKYKGAEIVLDGTEYMVLELEDILGIVGSGSCCHTGNADHKHAKEHEACCHDHKKH
notes: as for B2
B5: HpGroES H104A mutant (natural protein, Helicobacter pylori, UniProt P0A0R3 1-118, looked up)
chain: MKFQPLGERVLVERLEEENKTSSGIIIPDNAKEKPLMGVVKAVSHKISEGCKCVKEGDVIAFGKYKGAEIVLDGTEYMVLELEDILGIVGSGSCCHTGNHDHKAAKEHEACCHDHKKH
notes: as for B2
B6: HpGroES H102A mutant (natural protein, Helicobacter pylori, UniProt P0A0R3 1-118, looked up)
chain: MKFQPLGERVLVERLEEENKTSSGIIIPDNAKEKPLMGVVKAVSHKISEGCKCVKEGDVIAFGKYKGAEIVLDGTEYMVLELEDILGIVGSGSCCHTGNHDAKHAKEHEACCHDHKKH
notes: as for B2
B7: HpGroES H96A mutant (natural protein, Helicobacter pylori, UniProt P0A0R3 1-118, looked up)
chain: MKFQPLGERVLVERLEEENKTSSGIIIPDNAKEKPLMGVVKAVSHKISEGCKCVKEGDVIAFGKYKGAEIVLDGTEYMVLELEDILGIVGSGSCCATGNHDHKHAKEHEACCHDHKKH
notes: as for B2
B8: HpGroES H118A mutant (natural protein, Helicobacter pylori, UniProt P0A0R3 1-118, looked up)
chain: MKFQPLGERVLVERLEEENKTSSGIIIPDNAKEKPLMGVVKAVSHKISEGCKCVKEGDVIAFGKYKGAEIVLDGTEYMVLELEDILGIVGSGSCCHTGNHDHKHAKEHEACCHDHKKA
notes: as for B2
B9: HpGroES H108A mutant (natural protein, Helicobacter pylori, UniProt P0A0R3 1-118, looked up)
chain: MKFQPLGERVLVERLEEENKTSSGIIIPDNAKEKPLMGVVKAVSHKISEGCKCVKEGDVIAFGKYKGAEIVLDGTEYMVLELEDILGIVGSGSCCHTGNHDHKHAKEAEACCHDHKKH
notes: as for B2

How the values were obtained:
[1] = biological target: recombinant human TLR4 protein (human) (UniProt O00206); assay: SPR; Biacore T200; TLR4 immobilised on CM5 chip (6000 RU); HpGroES proteins flowed at 7.8125-1000 nM, 30 μl/min, 25 °C; PBS with 0.05% P20; Kd from saturation curves (GraphPad Prism)
[2] = biological target: T1, recombinant human TLR4 protein (human, UniProt O00206 24-631); assay: as above; conditions: both partners purified
T1 construct: Toll-like receptor 4, human, recombinant protein from R&D Systems; R&D Systems' recombinant human TLR4 is, as far as recalled, the extracellular domain with a His tag (some products are a complex with MD-2); also called Toll-like receptor 4; source: bought: R&D Systems

[3] = biological target: the molecule itself; assay: SEC; HiLoad 16/600 Superdex 200 pg; 150 mM NaCl, 25 mM potassium phosphate pH 7.4, 1 mM DTT, 0.3% glycerol; 2 ml/min

T1 sequence (O00206 24-631): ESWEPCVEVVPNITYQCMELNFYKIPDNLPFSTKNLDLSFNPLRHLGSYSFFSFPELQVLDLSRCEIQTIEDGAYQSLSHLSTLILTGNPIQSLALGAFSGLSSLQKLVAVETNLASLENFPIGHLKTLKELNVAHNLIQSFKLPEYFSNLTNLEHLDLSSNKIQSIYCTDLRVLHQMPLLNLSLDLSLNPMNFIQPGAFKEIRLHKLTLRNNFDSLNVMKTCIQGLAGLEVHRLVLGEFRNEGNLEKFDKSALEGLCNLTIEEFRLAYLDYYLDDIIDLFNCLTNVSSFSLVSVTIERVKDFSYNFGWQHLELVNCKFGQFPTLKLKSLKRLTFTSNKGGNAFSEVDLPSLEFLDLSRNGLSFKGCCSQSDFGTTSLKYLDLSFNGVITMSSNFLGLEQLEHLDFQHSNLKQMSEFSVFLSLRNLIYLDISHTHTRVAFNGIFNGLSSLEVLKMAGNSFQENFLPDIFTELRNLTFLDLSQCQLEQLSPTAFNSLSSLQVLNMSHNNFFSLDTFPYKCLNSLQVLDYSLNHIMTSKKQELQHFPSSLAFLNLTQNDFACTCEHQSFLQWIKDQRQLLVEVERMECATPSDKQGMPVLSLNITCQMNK
recombinant human TLR4 protein (human), sequence (O00206 24-631): as above

Molecule	Kd [1]	Kd [2]	stoichiometry N [3]
HpGroES H100A mutant (from UniProt P0A0R3 1-118) (natural protein)	> 1000 nM	–	–
B1	–	100 nM	7
B2	–	> 1000 nM	7
B3	–	150 nM	7
B4	–	–	7
B5	–	100 nM	7
B6	–	> 1000 nM	7
B7	–	110 nM	7
B8	–	> 1000 nM	7
B9	–	> 1000 nM	7
